T1: ZNRF3 ectodomain with C-terminal biotin acceptor peptide (C-BAP) tag, biotinylated in vivo (mouse, UniProt Q5SSZ7 53-216, biotin on the biotin acceptor peptide tag (in-vivo biotinylation by BirA))
T1 construct: ZNRF3 ectodomain; also called Biotinylated ZNRF3; source: HEK293-E cells, co-expressed with biotin ligase (BirA); not shown: biotin acceptor peptide (BAP), C-terminal, kept
T1 sequence (looked up): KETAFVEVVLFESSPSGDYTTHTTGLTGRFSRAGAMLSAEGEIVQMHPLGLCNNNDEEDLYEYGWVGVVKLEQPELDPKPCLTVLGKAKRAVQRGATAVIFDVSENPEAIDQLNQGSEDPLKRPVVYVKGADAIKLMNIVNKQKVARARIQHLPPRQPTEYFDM


Legend:
RNF43 (Homo sapiens) [1] = target: RNF43 (Homo sapiens) (UniProt Q68DV7); assay: ITC; settings: cited from earlier work
RNF43 (Homo sapiens) [2] = target: RNF43 (Homo sapiens) (UniProt Q68DV7); assay: ITC; settings: cited from earlier work; remark: listed apart in the source
[3] = target: T1, ZNRF3 ectodomain with C-terminal biotin …; assay: SPR; IBIS MX96; biotinylated ZNRF3 immobilised on a G-streptavidin sensor chip at different ligand densities; analytes flowed in 25 mM HEPES pH 8.0, 150 mM NaCl, 25 °C; equilibrium dose-response, global fit to a 1:1 binding model; settings: both partners purified

RNF43 (Homo sapiens), sequence (Q68DV7 24-197): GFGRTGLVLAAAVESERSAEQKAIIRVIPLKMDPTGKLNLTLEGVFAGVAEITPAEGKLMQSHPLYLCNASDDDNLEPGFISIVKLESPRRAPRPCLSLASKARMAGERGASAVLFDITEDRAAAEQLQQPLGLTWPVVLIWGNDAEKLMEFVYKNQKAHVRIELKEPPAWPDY
RSPO1, sequence (Q2MKA7 21-263): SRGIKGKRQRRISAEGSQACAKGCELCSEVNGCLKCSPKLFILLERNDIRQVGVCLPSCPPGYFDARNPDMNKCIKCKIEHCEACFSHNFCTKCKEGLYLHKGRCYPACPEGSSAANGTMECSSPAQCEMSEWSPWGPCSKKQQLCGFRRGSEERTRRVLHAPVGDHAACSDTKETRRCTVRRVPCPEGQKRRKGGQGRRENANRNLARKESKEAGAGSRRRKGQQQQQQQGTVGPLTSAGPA

Row | Kd [3] [µM] | Molecule | Kd (RNF43 (Homo sapiens) [1]) [µM] | Kd (RNF43 (Homo sapiens) [2]) [µM]
1 | – | RSPO1 (from UniProt Q2MKA7) | 0.75 | 8.5
2 | 1.9 | R-spondin 1 (RSPO1) furin-like domains Fu1 and Fu2 (domain or fragment, R-spondin 1, fragment consisting of the Fu1 and Fu2 domains; source: HEK 293E (EBNA) cells, purified (Ni-NTA, gel filtration); as described previously [18]) RISAEGSQACAKGCELCSEVNGCLKCSPKLFILLERNDIRQVGVCLPSCPPGYFDARNPDMNKCIKCKIEHCEACFSHNFCTKCKEGLYLHKGRCYPACPEGSSAANGTMECSSPA | – | –

From article PMC3861454, “Structures of Wnt-Antagonist ZNRF3 and Its Complex with R-Spondin 1 and Implications for Signaling” (PLoS ONE, 2013)
